Results from US20080219962.

Chain of myc-labeled Runx2 (chain, as listed by the source): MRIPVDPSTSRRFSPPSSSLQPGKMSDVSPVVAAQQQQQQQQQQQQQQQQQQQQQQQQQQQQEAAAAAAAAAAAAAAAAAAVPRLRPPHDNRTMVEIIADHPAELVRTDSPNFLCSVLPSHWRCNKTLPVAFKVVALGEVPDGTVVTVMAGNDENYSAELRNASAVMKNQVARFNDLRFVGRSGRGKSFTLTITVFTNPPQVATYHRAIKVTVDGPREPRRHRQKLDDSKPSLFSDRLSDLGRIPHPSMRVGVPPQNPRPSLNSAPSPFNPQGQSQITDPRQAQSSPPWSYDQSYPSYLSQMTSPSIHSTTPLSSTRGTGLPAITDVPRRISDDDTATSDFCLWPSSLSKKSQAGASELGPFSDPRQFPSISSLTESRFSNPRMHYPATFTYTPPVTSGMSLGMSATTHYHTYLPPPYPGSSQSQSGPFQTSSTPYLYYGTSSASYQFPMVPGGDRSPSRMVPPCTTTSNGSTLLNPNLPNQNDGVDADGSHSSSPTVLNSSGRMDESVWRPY
Chain of Smurf1 (Smad ubiquitin regulatory factor 1) (Q9HCE7 whole entry): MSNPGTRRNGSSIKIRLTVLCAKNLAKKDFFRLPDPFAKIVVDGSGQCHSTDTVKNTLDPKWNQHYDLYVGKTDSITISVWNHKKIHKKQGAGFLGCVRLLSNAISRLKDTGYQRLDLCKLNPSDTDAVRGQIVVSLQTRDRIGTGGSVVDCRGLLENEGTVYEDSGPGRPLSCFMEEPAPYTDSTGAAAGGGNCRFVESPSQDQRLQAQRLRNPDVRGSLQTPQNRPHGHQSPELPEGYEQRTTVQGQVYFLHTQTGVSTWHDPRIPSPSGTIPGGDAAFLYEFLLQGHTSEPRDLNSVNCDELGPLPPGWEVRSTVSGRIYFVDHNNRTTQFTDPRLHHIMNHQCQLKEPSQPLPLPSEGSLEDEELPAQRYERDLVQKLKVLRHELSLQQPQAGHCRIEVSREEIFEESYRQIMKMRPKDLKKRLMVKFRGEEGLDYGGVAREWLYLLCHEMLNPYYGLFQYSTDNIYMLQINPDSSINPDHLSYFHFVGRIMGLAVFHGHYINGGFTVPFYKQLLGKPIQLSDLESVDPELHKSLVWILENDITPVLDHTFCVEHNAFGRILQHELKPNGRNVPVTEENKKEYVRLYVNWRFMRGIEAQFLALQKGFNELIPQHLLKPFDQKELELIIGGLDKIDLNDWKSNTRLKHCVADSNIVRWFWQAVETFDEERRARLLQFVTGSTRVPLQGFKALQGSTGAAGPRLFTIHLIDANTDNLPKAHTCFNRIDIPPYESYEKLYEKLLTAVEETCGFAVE
Chain of Runx2-del-415-418 (chain, as listed by the source): as the sequence (chain, as listed by the source) above
Chain of myc-labeled HDAC4 (P56524 whole entry): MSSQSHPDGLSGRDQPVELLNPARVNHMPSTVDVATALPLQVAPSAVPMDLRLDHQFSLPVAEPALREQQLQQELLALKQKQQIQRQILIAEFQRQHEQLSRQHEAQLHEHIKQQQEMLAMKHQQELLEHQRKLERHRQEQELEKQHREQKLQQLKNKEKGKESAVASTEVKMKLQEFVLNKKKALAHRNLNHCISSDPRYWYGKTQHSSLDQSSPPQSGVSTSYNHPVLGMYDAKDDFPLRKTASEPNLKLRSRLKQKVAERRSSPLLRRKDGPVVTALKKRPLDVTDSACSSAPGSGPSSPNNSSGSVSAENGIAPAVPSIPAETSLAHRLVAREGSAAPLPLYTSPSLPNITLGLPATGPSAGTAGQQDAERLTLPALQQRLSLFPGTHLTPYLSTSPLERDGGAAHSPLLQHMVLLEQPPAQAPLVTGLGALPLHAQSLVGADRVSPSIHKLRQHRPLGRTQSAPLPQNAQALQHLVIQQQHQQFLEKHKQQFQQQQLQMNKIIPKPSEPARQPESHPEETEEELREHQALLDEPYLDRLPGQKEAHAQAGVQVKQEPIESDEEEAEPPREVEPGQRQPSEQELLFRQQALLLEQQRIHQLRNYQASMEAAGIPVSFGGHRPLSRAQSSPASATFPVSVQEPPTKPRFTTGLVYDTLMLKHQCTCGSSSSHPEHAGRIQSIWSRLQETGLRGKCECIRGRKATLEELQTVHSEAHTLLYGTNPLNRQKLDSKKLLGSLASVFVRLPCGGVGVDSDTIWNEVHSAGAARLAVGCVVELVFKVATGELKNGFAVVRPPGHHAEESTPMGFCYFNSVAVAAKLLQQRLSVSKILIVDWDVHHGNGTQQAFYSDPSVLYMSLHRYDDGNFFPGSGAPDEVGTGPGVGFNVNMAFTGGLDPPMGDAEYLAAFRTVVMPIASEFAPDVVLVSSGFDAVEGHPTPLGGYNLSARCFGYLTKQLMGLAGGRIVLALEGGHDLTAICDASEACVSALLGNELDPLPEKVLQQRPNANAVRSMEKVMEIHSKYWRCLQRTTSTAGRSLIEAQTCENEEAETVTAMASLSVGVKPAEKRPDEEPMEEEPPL
Chain of Runx2-P415R (chain, as listed by the source P415R): as the sequence (chain, as listed by the source) above, with P415R counted along it
Chain of myc-labeled HDAC5 (Q9UQL6 whole entry): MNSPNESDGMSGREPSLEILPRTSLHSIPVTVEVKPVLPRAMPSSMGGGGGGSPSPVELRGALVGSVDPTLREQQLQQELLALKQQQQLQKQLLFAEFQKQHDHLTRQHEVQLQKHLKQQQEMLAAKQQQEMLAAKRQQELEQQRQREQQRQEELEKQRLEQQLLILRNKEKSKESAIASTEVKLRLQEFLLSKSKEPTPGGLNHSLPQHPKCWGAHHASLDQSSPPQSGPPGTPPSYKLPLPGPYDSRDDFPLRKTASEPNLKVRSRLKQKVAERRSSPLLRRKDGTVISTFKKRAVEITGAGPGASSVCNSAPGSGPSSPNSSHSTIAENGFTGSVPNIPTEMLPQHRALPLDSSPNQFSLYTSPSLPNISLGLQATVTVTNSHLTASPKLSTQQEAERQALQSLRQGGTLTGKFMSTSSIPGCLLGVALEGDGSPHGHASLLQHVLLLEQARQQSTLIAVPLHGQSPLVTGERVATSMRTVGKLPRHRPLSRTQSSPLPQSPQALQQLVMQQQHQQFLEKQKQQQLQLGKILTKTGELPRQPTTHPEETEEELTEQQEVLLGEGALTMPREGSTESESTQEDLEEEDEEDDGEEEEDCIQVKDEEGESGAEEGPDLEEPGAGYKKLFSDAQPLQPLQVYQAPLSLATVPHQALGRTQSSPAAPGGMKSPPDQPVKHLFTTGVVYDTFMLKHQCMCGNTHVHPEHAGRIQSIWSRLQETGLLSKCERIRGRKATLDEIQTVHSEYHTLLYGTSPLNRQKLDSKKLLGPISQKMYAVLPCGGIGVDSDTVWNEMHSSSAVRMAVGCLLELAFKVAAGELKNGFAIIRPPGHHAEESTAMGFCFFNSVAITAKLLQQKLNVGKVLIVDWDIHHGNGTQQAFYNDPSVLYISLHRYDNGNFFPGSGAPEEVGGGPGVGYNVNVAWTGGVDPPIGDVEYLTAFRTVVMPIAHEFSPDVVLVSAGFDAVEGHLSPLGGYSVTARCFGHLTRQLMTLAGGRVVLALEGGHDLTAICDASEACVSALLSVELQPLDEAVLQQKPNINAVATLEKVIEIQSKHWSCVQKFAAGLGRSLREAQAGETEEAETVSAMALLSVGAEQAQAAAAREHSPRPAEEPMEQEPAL

| Substance | Smurf1-mediated degradation of Runx2 (Western blot of Runx2 level) (Runx2-P415R) | Smurf1-mediated degradation of Runx2 (Western blot of Runx2 level) (Runx2-del-415-418) | Runx2 deacetylation (immunoprecipitation with anti-acetyl-lysine antibody, Western blot with anti-myc antibody) (myc-labeled Runx2) |
| --- | --- | --- | --- |
| Smurf1 (Smad ubiquitin regulatory factor 1) | Runx2-del-415-418 and Runx2-P415R were very stable, which means they were strongly resistant to Smurf1-mediated degradation | Runx2-del-415-418 and Runx2-P415R were very stable, which means they were strongly resistant to Smurf1-mediated degradation | – |
| myc-labeled HDAC4 | – | – | histone deacetylases 4 and 5 deacetylate Runx2 |
| myc-labeled HDAC5 | – | – | histone deacetylases 4 and 5 deacetylate Runx2 |
